Test results: IntAct's records for PubMed 20972448

Biological target: xpo1_mouse Xpo1 (UniProt Q6P5F9)
UniProt Q6P5F9, sequence (Q6P5F9 whole entry): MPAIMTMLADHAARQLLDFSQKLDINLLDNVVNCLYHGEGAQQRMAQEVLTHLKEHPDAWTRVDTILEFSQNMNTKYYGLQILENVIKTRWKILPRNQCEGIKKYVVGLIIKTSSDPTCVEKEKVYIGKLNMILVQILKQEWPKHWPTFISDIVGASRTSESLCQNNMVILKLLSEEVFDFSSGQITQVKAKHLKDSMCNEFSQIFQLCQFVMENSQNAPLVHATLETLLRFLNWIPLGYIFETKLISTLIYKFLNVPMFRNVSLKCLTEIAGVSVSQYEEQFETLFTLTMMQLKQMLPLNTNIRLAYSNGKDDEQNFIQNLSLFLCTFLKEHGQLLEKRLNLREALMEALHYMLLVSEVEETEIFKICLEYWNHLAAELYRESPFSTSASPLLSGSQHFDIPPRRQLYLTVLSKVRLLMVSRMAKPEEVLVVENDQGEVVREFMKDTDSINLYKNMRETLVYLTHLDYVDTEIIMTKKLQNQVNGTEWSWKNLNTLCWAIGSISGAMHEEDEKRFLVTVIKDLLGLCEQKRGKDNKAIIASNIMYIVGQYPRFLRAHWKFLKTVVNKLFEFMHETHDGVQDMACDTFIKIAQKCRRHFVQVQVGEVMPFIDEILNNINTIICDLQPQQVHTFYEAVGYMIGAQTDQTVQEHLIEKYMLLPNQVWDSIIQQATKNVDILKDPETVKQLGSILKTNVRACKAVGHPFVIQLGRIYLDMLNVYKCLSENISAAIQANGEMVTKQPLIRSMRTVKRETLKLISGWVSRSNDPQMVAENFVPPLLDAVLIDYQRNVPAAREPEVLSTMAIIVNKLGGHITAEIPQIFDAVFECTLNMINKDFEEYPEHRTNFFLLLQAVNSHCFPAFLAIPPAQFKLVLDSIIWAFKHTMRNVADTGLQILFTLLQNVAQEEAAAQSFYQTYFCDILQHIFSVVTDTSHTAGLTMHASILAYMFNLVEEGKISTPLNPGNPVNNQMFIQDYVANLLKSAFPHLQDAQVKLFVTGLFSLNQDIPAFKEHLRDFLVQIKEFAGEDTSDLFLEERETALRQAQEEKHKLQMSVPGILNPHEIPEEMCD

In the case of “cAMP-dependent protein kinase inhibitor alpha (Homo sapiens) (from UniProt P61925) S35L”, the “effect of a mutation on the interaction” value is reported as “increasing interaction”.
